Literature values as cited in article PMC8146069.

How the values were obtained:
[1] = target: r-hirudin (recombinant hirudin, type 1 or type 2) (UniProt P01050); test: pH profile of hirudin binding to thrombin (the measured quantity and the assay are not stated in this article)
[2] = target: His57 (UniProt position 406, VLTAAHCLLYP); test: kinetics
[3] = system: Nterm16; test: kinetics
[4] = 25 °C (as for the free enzyme; inferred from the preceding sentence), µ = 0.1 (inferred from the preceding sentence), thrombin with small peptide substrate bound
[5] = 25.0 ± 0.1 °C, thrombin reacting with NPMP
[6] = 25.0 ± 0.1 °C, thrombin reacting with PPACK (2.2 × 10^−9 M, [I] << Ki)
[7] = 25.0 ± 0.1 °C, thrombin reacting with paraoxon

Sequence of r-hirudin (recombinant hirudin, type 1 or type 2) (P01050 whole entry): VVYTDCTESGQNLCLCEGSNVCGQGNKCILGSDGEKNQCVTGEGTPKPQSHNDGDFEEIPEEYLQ

| pKa, His57 of thrombin [1] | Substance | pKa [2, 4] | pKa ([2]; 25 °C, µ = 0.1, free thrombin) | pKa [2, 5] | pKa [2, 6] | pKa [2, 7] | pKa ([2]; thrombin binding r-hirudin) | pKa [3, 4] | pKa ([3]; 25 °C, µ = 0.1, free thrombin) | pKa [3, 5] | pKa [3, 6] | pKa [3, 7] |
| --- | --- | --- | --- | --- | --- | --- | --- | --- | --- | --- | --- | --- |
| 7.1 pH units | alpha-thrombin |  |  |  |  |  |  |  |  |  |  |  |
|  | alpha-thrombin (Homo sapiens) | 6.16 ± 0.25 | 6.7 ± 0.3 | 8.0 ± 0.1 | 7.3 ± 0.2 | 7.8 ± 0.2 | 7.1 | 8.95 ± 0.41 | 8.4 ± 0.4 | 8.6 ± 0.2 | 8.8 ± 0.3 | 9.3 ± 0.3 |
